Earlier results on two molecules are cited in patent US20240293553A1, “P-SELECTIN INHIBITORS AND USES THEREOF” (Beth Israel Deaconess Medical Center, Inc., priority 2021, published 2024).

“And” between values parts separate entries of the source, which are not always exact repeats. Identical values can stand only once.

In data set [1] the target is T1, P-selectin (Homo sapiens, UniProt P16109).
T1 sequence (P16109 42-830): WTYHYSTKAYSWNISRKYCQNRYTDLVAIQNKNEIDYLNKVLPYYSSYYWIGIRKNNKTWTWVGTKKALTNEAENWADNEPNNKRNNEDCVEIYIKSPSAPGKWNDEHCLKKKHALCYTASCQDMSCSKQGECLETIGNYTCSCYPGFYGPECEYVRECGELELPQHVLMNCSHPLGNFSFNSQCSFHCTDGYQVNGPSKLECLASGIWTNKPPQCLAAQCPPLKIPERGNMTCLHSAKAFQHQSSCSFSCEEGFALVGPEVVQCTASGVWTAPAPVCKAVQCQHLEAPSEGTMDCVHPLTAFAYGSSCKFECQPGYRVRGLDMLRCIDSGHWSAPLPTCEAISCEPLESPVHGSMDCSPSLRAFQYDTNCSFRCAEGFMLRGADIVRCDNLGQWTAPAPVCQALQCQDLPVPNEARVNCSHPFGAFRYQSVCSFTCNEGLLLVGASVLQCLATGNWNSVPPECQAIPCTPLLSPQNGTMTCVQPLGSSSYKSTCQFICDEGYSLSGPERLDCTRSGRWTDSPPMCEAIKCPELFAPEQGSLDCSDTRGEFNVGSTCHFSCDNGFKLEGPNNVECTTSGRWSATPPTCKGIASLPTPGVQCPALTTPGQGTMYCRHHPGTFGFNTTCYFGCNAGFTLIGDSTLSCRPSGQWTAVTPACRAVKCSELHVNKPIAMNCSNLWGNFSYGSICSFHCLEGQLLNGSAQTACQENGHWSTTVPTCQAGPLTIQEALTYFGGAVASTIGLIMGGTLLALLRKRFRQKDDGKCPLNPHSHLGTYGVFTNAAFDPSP
The note with it: reported values.

The conditions of data set [2]: literature values.

B1: PSGL-1: P-selectin glycoprotein ligand-1, glycoprotein expressed on the surface of all leukocytes; native ligand of P-selectin (protein, UniProt Q14242 42-412, looked up)
P-selectin glycoprotein …: QATEYEYLDYDFLPETEPPEMLRNSTDTTPLTGPGTPESTTVEPAARRSTGLDAGGAVTELTTELANMGNLSTDSAAMEIQTTQPAATEAQTTQPVPTEAQTTPLAATEAQTTRLTATEAQTTPLAATEAQTTPPAATEAQTTQPTGLEAQTTAPAAMEAQTTAPAAMEAQTTPPAAMEAQTTQTTAMEAQTTAPEATEAQTTQPTATEAQTTPLAAMEALSTEPSATEALSMEPTTKRGLFIPFSVSSVTHKGIPMAASNLSVNYPVGAPDHISVKQCLLAILILALVATIFFVCTVVLAVRLSRKGHMYPVRNYSPTEMVCISSLLPDGGEGPSATANGGLSKAKSPGLTPEPREDREGDDLTLHSFLP
Usually Kd stands for the concentration at which binding is half-saturated. With B1, the dissociation constant Kd in data set [1] was 73 nM and 70 to 300 nM.

B2: crizanlizumab: anti-P-selectin mAb approved for the treatment of sickle cell disease (antibody, chains of the INN, looked up, V domains shown)
VH: QVQLVQSGAEVKKPGASVKVSCKVSGYTFTSYDINWVRQAPGKGLEWMGWIYPGDGSIKYNEKFKGRVTMTVDKSTDTAYMELSSLRSEDTAVYYCARRGEYGNYEGAMDYWGQGTLVTVSS
VL: DIQMTQSPSSLSASVGDRVTITCKASQSVDYDGHSYMNWYQQKPGKAPKLLIYAASNLESGVPSRFSGSGSGTDFTLTISSLQPEDFATYYCQQSDENPLTFGGGTKVEIK
Regarding B2, in data set [2], the t1/2 is given as 10.6 days.
